Assay [1] addresses Klebsiella pneumoniae N-acetylglucosamine-6-phosphate deacetylase (NagA) (Klebsiella pneumoniae). The assay is described as follows: SEC-MALS; Superdex 200 Increase 10/300 GL, 0.5 ml/min, 20°C, DAWN-Treos detector; BSA for calibration.
Assay [2] has the same target. Put plainly: SEC; Superdex 200 Increase 10/300 GL, 20 mM Tris-HCl pH 8.0, 150 mM NaCl; apparent mass by calibration with molecular weight standards. On the technique in general: In gel filtration, larger molecules generally elute earlier.

Broadly, the stoichiometry N is the number of molecules, sites or subunits per partner or assembly. Regarding “Klebsiella pneumoniae N-acetylglucosamine-6-phosphate deacetylase (NagA) (enzyme)”, the stoichiometry N in assay [1] and in assay [2] was 4 throughout.
